These results are taken from publication PMC12036459.

Experiment [1] deals with tubulin (taxol-stabilized microtubules). The experiment is described as follows: single-molecule TIRF on bare microtubules. The note with it: reference: E. coli tau (non-phosphorylated).
The target of experiment [2] is tau (human 2N4R) (UniProt P10636). The experiment is described as follows: Hill coefficient of microtubule binding curve. The conditions noted are these: reference: E. coli tau (non-phosphorylated).
The target of experiment [3] is tau (human 2N4R) dGAE, 297-391 (UniProt P10636). The experiment is described as follows: filament co-assembly, ultracentrifugation, SDS-PAGE.
The target of experiment [4] is tau (human 2N4R) (UniProt P10636). The experiment is described as follows: single-molecule TIRF dwell time inside envelopes. The conditions noted are these: reference: E. coli SNAP-tau (non-phosphorylated); sites T181,S198,S202,S210,T231,S235,S237,S352,S396,S404,S422.
[5] abbreviates: sites T181,S202,S210,T231,S235,S237,S241,S258,S262,T319,T373,T377,T403,S404.
The mark [6] stands for this setting: sites T181,S198,S202,S210,T231,S235,S237,S352,S396,S404,S422.

Chain of tau (human 2N4R) (P10636 whole entry, looked up, stated change not applied): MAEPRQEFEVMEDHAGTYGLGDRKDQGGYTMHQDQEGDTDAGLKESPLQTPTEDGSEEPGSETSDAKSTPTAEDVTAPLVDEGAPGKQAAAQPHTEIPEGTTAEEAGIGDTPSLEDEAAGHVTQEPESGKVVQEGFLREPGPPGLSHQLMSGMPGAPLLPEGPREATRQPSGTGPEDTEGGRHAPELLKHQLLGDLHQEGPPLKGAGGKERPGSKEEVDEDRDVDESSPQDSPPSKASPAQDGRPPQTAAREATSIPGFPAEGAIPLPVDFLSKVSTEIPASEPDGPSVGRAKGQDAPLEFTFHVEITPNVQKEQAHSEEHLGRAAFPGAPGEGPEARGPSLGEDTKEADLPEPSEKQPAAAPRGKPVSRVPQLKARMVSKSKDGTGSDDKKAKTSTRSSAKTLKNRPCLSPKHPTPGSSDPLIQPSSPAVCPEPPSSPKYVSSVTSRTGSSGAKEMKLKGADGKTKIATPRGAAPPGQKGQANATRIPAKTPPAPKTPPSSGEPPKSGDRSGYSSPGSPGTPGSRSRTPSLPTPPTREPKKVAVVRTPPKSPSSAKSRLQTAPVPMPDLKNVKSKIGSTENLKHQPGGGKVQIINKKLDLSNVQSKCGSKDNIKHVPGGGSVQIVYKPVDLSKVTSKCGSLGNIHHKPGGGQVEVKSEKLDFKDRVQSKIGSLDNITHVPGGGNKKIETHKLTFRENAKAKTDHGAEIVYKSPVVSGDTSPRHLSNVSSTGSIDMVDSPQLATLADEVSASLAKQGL

For “tau (human 2N4R) (from UniProt P10636-8) HEK tau”, in experiment [1] (setting [5]), the “other: dwell time” value is “weaker; reference ~ 4.3”. In addition, the “other: Hill coefficient” value with tau (human 2N4R) [2] (setting [5]) is on record as “same; reference 1.24”. For the same substance, the “other: t1/2 of co-pelleting” value in experiment [3] (reference: E. coli tau (non-phosphorylated), sites T181,S202,S210,T231,S235,S237,S241,S258,S262,T319,T373,T377,T403,S404) is listed as “same; reference ~ 14”.
Consider “tau (human 2N4R) (from UniProt P10636-8) Sf9 SNAP-tau”, for which the “other: dwell time” value in the experiment with tau (human 2N4R) [4] was “weaker; reference ~ 6.06”.
Regarding “tau (human 2N4R) (from UniProt P10636-8) Sf9 tau”, the “other: dwell time” value in experiment [1] (setting [6]) is “weaker; reference ~ 4.3”. Also, in the experiment with tau (human 2N4R) [2] (setting [6]), the “other: Hill coefficient” value is on record as “stronger; reference 1.24”. Also, the “other: t1/2 of co-pelleting” value was “stronger; reference ~ 14” in experiment [3] (reference: E. coli tau (non-phosphorylated), sites T181,S198,S202,S210,T231,S235,S237,S352,S396,S404,S422) and “stronger; reference ~ 12” in experiment [3] (reference: HEK tau, sites S210,S422).
